# In IntAct's records for PubMed 19691494:
# B1: G-protein coupled receptor 15 (Pan troglodytes (Chimpanzee)), Q9BG77 (parent)
# chain: MDPEETSVYLDYYYATSPNSDIRETHSHVPYTSVFLPVFYTAVFLTGVLGNLVLMGALHFKPGSRRLIDIFIINLAASDFIFLVTLPLWVDKEASLGLWRTGSFLCKGSSYMISVNMHCSVLLLTCMSVDRYLAIVWPVVSRKFRRTDCAYVVCASIWFISCLLGLPTLLSRELTLIDDKPYCAEKKATPIKLIWSLVALIFTFFVPLLSIVTCYCCIARKLCAHYQQSGKHNKKLKKSIKIIFIVVAAFLVSWLPFNTFKFLAIVSGLRQEHYLPSAILQLGMEVSGPLAFANSCVNPFIYYIFDSYIRRAIVHCLCPCLKNYDFGSSTETSDSHLTKALSTFIHAEDFARRRKRSVSL
# Variants of: B1
# Conditions: with 1433b_human YWHAB
row,effect of a mutation on the interaction,Variant
1,disrupting interaction,S359A
